Patent publication US20050238642A1, “Modified bouganin proteins, cytotoxins and methods and uses thereof” (priority 2004, published 2005)

Key:
[1] = tested on: NIH:OVCAR-3; assay: MTS cytotoxicity assay; type: cell-based; conditions: Ep-CAM-positive NIH:OVCAR-3, MTS, 5 days
Procedure: The MTS assay used to measure potency was conducted using standard technique known in the art, and as more fully described below in Example 8. […] In the case of VB6-845-CL-de-bouganin, the potency was measured at 1 to 2 nM for CAL 27 and 0.6 to 0.7 nM versus NIH:OVCAR-3.
(§1) The MTS assay was preformed using standard techniques known in the art. More particularly, 50 microlitres of cells (2×10^4 cells/ml) were seeded per well and plates were incubated at 37° C. under 5% CO2 for 2 hr. Then 50 microlitres of spiked drug (i.e. construct to be tested or control) was added to the culture medium at increasing concentrations. Culture medium, with or without cells, was used as positive and negative controls, respectively. The plates were left at 37° C. under 5% CO2 for 5 days. At day 5, the inhibition of cell proliferation was evaluated by adding 20 microlitres of MTS reagent (Promega, Cat# G5430). The plates were further incubated at 37° C. under 5% CO2 for 2 hr and ODs were read at 490 nm using the plate reader spetrophotometer. Background values were subtracted from the sample values obtained for each concentration and the results were expressed as a percent of viable cells. The IC50 values for each drug were calculated for each cell line.

[2] = tested on: A-375; assay: MTS cytotoxicity assay; type: cell-based; conditions: Ep-CAM-negative A-375, MTS, 5 days
Procedure: as §1

[3] = tested on: DAUDI; assay: MTS cytotoxicity assay; type: cell-based; conditions: Ep-CAM-negative DAUDI, 5 days
Procedure: as §1

[4] = tested on: HMEC; assay: MTS cytotoxicity assay; type: cell-based, human; conditions: Ep-CAM-negative HMEC, 5 days
Procedure: The tumour cell lines used in this study were purchase from ATCC and were propagated following ATCC's recommendations except for the cell lines C-41, TOV-112D which were grown in RPMI 1640 or DMEM supplemented with 10% FCS, respectively. Tumor cells were harvested at 60-70% confluence with viability over 90%. The human normal mammary epithelial cells (HMEC) were purchased from CAMBREX and maintained in specified media according to the procedure provided by CAMBREX. The cells were harvested at 70% confluence with viability over 90%.
as §1

[5] = target: T1, Ep-CAM (Epithelial Cell Adhesion Molecule) (human, UniProt P16422 24-314); assay: cell-based or functional assay
T1 sequence: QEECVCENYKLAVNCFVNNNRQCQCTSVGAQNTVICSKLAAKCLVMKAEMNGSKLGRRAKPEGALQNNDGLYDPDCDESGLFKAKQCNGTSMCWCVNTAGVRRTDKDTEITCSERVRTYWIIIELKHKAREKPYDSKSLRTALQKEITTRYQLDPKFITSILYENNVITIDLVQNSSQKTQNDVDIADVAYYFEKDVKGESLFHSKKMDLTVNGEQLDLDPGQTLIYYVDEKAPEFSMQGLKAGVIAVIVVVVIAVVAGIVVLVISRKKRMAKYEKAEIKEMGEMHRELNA

[6] = target: T1, Ep-CAM (Epithelial Cell Adhesion …); assay: cell-based or functional assay; remark: listed apart in the source
[7] = target: T1, Ep-CAM (Epithelial Cell Adhesion …); assay: flow cytometry, 10 µg/mL VB6-845 on HT-3 cells (cervical), anti-His detection; ± SEM
[8] = target: T1, Ep-CAM (Epithelial Cell Adhesion …); assay: flow cytometry, 10 µg/mL VB6-845 on C-4 I cells (cervical), anti-His detection; ± SEM
[9] = target: T1, Ep-CAM (Epithelial Cell Adhesion …); assay: flow cytometry, 10 µg/mL VB6-845 on SK-OV-3 cells (ovarian), anti-His detection; ± SEM
[10] = target: T1, Ep-CAM (Epithelial Cell Adhesion …); assay: flow cytometry, 10 µg/mL VB6-845 on RL95-2 cells (endometrial), anti-His detection; ± SEM
[11] = target: T1, Ep-CAM (Epithelial Cell Adhesion …); assay: flow cytometry, 10 µg/mL VB6-845 on HEC-1-A cells (endometrial), anti-His detection; ± SEM
[12] = target: T1, Ep-CAM (Epithelial Cell Adhesion …); assay: flow cytometry, 10 µg/mL VB6-845 on NIH:OVCAR-3 cells (ovarian, Ep-CAM-positive), anti-His detection; ± SEM
[13] = target: T1, Ep-CAM (Epithelial Cell Adhesion …); assay: flow cytometry, 10 µg/mL VB6-845 on C-33A cells (cervical; Ep-CAM status of the line not stated), anti-His detection; ± SEM
[14] = target: T1, Ep-CAM (Epithelial Cell Adhesion …); assay: flow cytometry, 10 µg/mL VB6-845 on TOV-112G cells (ovarian; Ep-CAM status of the line not stated), anti-His detection; ± SEM
[15] = target: T1, Ep-CAM (Epithelial Cell Adhesion …); assay: flow cytometry, 10 µg/mL VB6-845 on SK-UT-1 cells (endometrial; Ep-CAM status of the line not stated), anti-His detection; ± SEM
[16] = tested on: tumor cell lines; assay: VB6-845 Tumor Cell Indications: binding for scFv 845 to tumor cell lines (median fluorescence)
Source text: Tumor-targeting cytotoxins are composed of the variable region of an antibody linked to a bacterial, fungal or plant toxin. The present study illustrates that the deimmunized bouganin constructs of the invention, comprising deimmunized bouganin linked to a targeting moiety have reduced immunogenicity, while still retaining their biological activity.

## CN(Cc1cnc2nc(N)nc(N)c2n1)c1ccc(C(=O)N[C@@H](CCC(=O)O)C(=O)O)cc1 [Methotrexate]
[1]; Homo sapiens, 120 h
  IC50: > 1000 nM
[2]; Homo sapiens, 120 h
  IC50: 6 nM
[3]; Homo sapiens, 120 h
  IC50: 3.6 nM
[4]; Homo sapiens, 120 h
  IC50: 41 nM

## CO[C@@]12[C@H](COC(N)=O)C3=C(C(=O)C(C)=C(N)C3=O)N1C[C@@H]1N[C@@H]12 [Mitomycin C]
[1]
  IC50: 28 nM
[2]
  IC50: 14 nM
[3]
  IC50: 2.8 nM
[4]
  IC50: 50 nM

## CC[C@@]1(O)C(=O)OCc2c1cc1n(c2=O)Cc2cc3c(CN(C)C)c(O)ccc3nc2-1 [Topotecan]
[1]; Homo sapiens, 120 h
  IC50: 0.071 nM
[2]; Homo sapiens, 120 h
  IC50: 1.5 nM
[3]; Homo sapiens, 120 h
  IC50: 0.009 nM
[4]; Homo sapiens, 120 h
  IC50: 4.1 nM

## Bleomycin Sulfate
[1]
  IC50: 30 nM
[2]
  IC50: 170 nM
[3]
  IC50: 22 nM
[4]
  IC50: 600 nM

B1: VB6-845 (Fab)
chain 1: EVQLVQSGPGLVQPGGSVRISCAASGYTFTNYGMNWVKQAPGKGLEWMGWINTYTGESTYADSFKGRFTFSLDTSASAAYLQINSLRAEDTAVYYCARFAIKGDYWGQGTLLTVSSASTKGPSVFPLAPSSKSTSGGTAALGCLVKDYFPEPVTVSWNSGALTSGVHTFPAVLQSSGLYSLSSVVTVPSSSLGTQTYICNVNHKPSNTKVDKKVEPKSCTRHRQPRGWEQLYNTVSFNLGEAYEYPTFIQDLRNELAKGTPVCQLPVTLQTIADDKRFVLVDITTTSKKTVKVAIDVTDVYVVGYQDKWDGKDRAVFLDKVPTVATSKLFPGVTNRVTLTFDGSYQKLVNAAKADRKALELGVNKLEFSIEAIHGKTINGQEAAKFFLIVIQMVSEAARFKYIETEVVDRGLYGSFKPNFKVLNLENNWGDISDAIHKSSPQCTTINPALQLISPSNDPWVVNKVSQISPDMGILKFKSSK
chain 2: HHHHHHDIQMTQSPSSLSASVGDRVTITCRSTKSLLHSNGITYLYWYQQKPGKAPKLLIYQMSNLASGVPSRFSSSGSGTDFTLTISSLQPEDFATYYCAQNLEIPRTFGQGTKVELKRTVAAPSVFIFPPSDEQLKSGTASVVCLLNNFYPREAKVQWKVDNALQSGNSQESVTEQDSKDSTYSLSSTLTLSKADYEKHKVYACEVTHQGLSSPVTKSFNRGEC
notes: also called Fab anti-Ep-CAM-de-bouganin (Bou156) construct
[5]
  IC50 nM, MTS cytotoxicity assay, C-4 I cells (VB6-845 70% pure): 1.7 nM
  IC50 nM, MTS cytotoxicity assay, Caov-3 cells (VB6-845 70% pure): 1.3 nM
  IC50 nM, MTS cytotoxicity assay, HEC-1-A cells (VB6-845 70% pure): 43 nM
  IC50 nM, MTS cytotoxicity assay, HT-3 cells (VB6-845 70% pure): 23 nM
  IC50 nM, MTS cytotoxicity assay, KLE cells (VB6-845 70% pure): > 100 nM
  IC50 nM, MTS cytotoxicity assay, ME-180 cells (VB6-845 70% pure): 37 nM
  IC50 nM, MTS cytotoxicity assay, MS751 cells (VB6-845 70% pure): 0.43 nM
  IC50 nM, MTS cytotoxicity assay, NIH-OVCAR-3 cells (VB6-845 70% pure): 3.4 nM
  IC50 nM, MTS cytotoxicity assay, RL95-2 cells (VB6-845 70% pure): 100 nM
  IC50 nM, MTS cytotoxicity assay, SK-OV-3 cells (VB6-845 70% pure): > 100 nM
[6]
  IC50 nM, MTS cytotoxicity assay, NIH:OVCAR-3 cells (VB6-845 90% pure): 1 nM
[7]
  fold-increase in MF: 29.1 fold
[8]
  fold-increase in MF: 6.8 fold
[9]
  fold-increase in MF: 4.3 fold
[10]
  fold-increase in MF: 4.9 fold
[11]
  fold-increase in MF: 42.3 fold
[12]
  fold-increase in MF: 33.6 fold
[13]
  fold-increase in MF: 1.1 fold
[14]
  fold-increase in MF: 1.1 fold
[15]
  fold-increase in MF: 1.1 fold

B2: scFv 845: the Ep-CAM antibody of VB6-845, head prints scFv 845 (IgG) (antibody, chains of the INN, looked up, V domains shown)
VH: EVQLVQSGPGLVQPGGSVRISCAASGYTFTNYGMNWVKQAPGKGLEWMGWINTYTGESTYADSFKGRFTFSLDTSASAAYLQINSLRAEDTAVYYCARFAIKGDYWGQGTLLTVSS
VL: DIQMTQSPSSLSASVGDRVTITCRSTKSLLHSNGITYLYWYQQKPGKAPKLLIYQMSNLASGVPSRFSSSGSGTDFTLTISSLQPEDFATYYCAQNLEIPRTFGQGTKVELK
modifications: scFv
[16]; Bladder, 14 cell lines
  Binding for scFv 845 (IgG): mean fold-increase in median fluorescence over the control antibody: 59.6 fold
[16]; Cervical, 3 cell lines
  Binding for scFv 845 (IgG): mean fold-increase in median fluorescence over the control antibody: 37.5 fold
[16]; Endometrial, 1 cell line
  Binding for scFv 845 (IgG): mean fold-increase in median fluorescence over the control antibody: 23.8 fold
[16]; Esophageal, 3 cell lines
  Binding for scFv 845 (IgG): mean fold-increase in median fluorescence over the control antibody: 72.4 fold
[16]; Gastric, 3 cell lines
  Binding for scFv 845 (IgG): mean fold-increase in median fluorescence over the control antibody: 148.9 fold
[16]; Head and Neck, 2 cell lines
  Binding for scFv 845 (IgG): mean fold-increase in median fluorescence over the control antibody: 11.4 fold
[16]; Kidney, 3 cell lines
  Binding for scFv 845 (IgG): mean fold-increase in median fluorescence over the control antibody: 9.4 fold
[16]; Lung, 3 cell lines
  Binding for scFv 845 (IgG): mean fold-increase in median fluorescence over the control antibody: 16.4 fold
[16]; Melanoma, 3 cell lines
  Binding for scFv 845 (IgG): mean fold-increase in median fluorescence over the control antibody: 1.6 fold
[16]; Ovarian, 2 cell lines
  Binding for scFv 845 (IgG): mean fold-increase in median fluorescence over the control antibody: 84.1 fold
[16]; Pancreas, 3 cell lines
  Binding for scFv 845 (IgG): mean fold-increase in median fluorescence over the control antibody: 5.5 fold
[16]; Prostate, 5 cell lines
  Binding for scFv 845 (IgG): mean fold-increase in median fluorescence over the control antibody: 50.1 fold
